Test results from publication PMC4847170, “Insights into the DNA-binding mechanism of a LytTR-type transcription regulator”.
Numbering of substitutions follows the chain as printed.

T1: YpdB (Escherichia coli, UniProt P0AE39 1-244)
T1 sequence: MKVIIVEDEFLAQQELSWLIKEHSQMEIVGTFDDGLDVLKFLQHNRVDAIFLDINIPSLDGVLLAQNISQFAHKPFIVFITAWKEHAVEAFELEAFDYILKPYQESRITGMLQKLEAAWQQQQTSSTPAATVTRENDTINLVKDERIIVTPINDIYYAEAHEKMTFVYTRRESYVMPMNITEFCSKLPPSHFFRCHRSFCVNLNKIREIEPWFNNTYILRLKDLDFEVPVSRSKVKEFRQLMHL

T2: YpdB-D53E (Escherichia coli, UniProt P0AE39 1-244, D53E)
T2 sequence: T1 sequence with D53E

B1: PyhjX (dsDNA)
DNA 1: GGGGCGCGTCATTCATTCCTGAACTAAGGCATTTCATTCCGTTCTGATGGCATTTCATGCCGGGGG
DNA 2: CCCCCGGCATGAAATGCCATCAGAACGGAATGAAATGCCTTAGTTCAGGAATGAATGACGCGCCCC
B2: PyhjX_A (site A inactivated) (dsDNA)
DNA 1: GGGGCGCGTCATTCATTCCTGAACTAATTACGGGACGTCCGTTCTGATGGCATTTCATGCCGGGGG
DNA 2: CCCCCGGCATGAAATGCCATCAGAACGGACGTCCCGTAATTAGTTCAGGAATGAATGACGCGCCCC

Legend:
Conditions in all cases: protein: recombinant; tags: N-terminal 6His; chain copies: 2; label: 5' biotin on strand 1; blunt
YpdB = target: T1, YpdB; assay: SPR; 1-50 nM protein; lower maximal binding rate and affinity than D53E; SPR (Biacore T200, SA chip): HBS-EP, 10 mM HEPES pH 7.4, 150 mM NaCl, 3 mM EDTA, 0.005% P20, 25 C
YpdB-D53E [1] = target: T2, YpdB-D53E; assay: SPR; overall affinity from maximal binding rates, active protein concentration; SPR (Biacore T200, SA chip): HBS-EP, 10 mM HEPES pH 7.4, 150 mM NaCl, 3 mM EDTA, 0.005% P20, 25 C
YpdB-D53E [2] = target: T2, YpdB-D53E; assay: SPR; 1-50 nM protein; binding completely abolished; SPR (Biacore T200, SA chip): HBS-EP, 10 mM HEPES pH 7.4, 150 mM NaCl, 3 mM EDTA, 0.005% P20, 25 C

Binder	binding result (YpdB)	Kd (YpdB-D53E [1]) [nM]	binding result (YpdB-D53E [2])
B1	binds	10	–
B2	–	–	no binding
